The DeepSol protein solubility set

Assay: soluble on expression in E. coli; label from the status in PepcDB or PDB records
With “GPGSMTAAVDLEGVALHGHMKGVTMLKFNRDGDLLFSSAKDTNCSACCWQVKTGKLFGSYTTVGQVEGRTYDAAMVALDVNRESTLLATASAGEEVLLWSVESGALLGSVSRSLSSGASVGFSHDDTLMMVATKGRSSTNSAIQVYNVPFTVPKAGEDIAPVKTPFTTFSTFETPDTITWAAWGPTNETIYYSEGGYMNILDVEANKVIRSRQIHEDENEVINRFSWDPNYLALATASTDKTSHLIDFRDLATIQVYRSDVPVNDVSISPNADHVILGGGMDAASVTTQGGQSIFEVKFFHKVHGHQLGQLRCHFGTINAMSFHPDGRGFASASYDGLIKMYRFGDSYDSTPGAQPLWTL” the “soluble on expression in E. coli” value was “not soluble”. With “TKDFTWTTDFNIAFNNNKITSYPQKEEVVGTKIRTVGYSIYEFYMQEWAGVDPVNGDPLWYMDVTDDKGNPTGERTTTNTYSKATKYKLGSALPSATGGLTNTVSWKGVDFSFMFTYGFGGKIYDVYEENLLNDGNKTGYQLITEQADSWTPENTNASNPKFIPNNSNTSNGRSSRYLHNADFIKLKNISLGYSLPKSLIKKNLLQNVRIYVSADNLITWNLDKKFKSYDVELGGVDGLLDGGGTVPLARTFTAGINLTF” the “soluble on expression in E. coli” value was “not soluble”. With “MGSDKIHHHHHHMKIIKLRNNSPEFNYKMIVLARESRGIGQRELATLVETDQGNLSRIEKGAQTPVKDMIERISKALDYPVSFFRLQHSVYDFSKSYYRRKLKMPKKEIELSEAKINISKINIETLIRAVELPEPNYPTFDLSKDLSASACAIQLRKYWKLPHGRVENFTKVLEDNGVLVANIDFAGIEVDGHAILTENNLPIIFINKNITADRYRLTLAHELGHLCLHVGREIAEDRDVEQEAFMFAAELLTPEVEIAPDLCEVSIEKLKELKKYWKVSMGSLLKRAHVLKGVSDNQYKYLWQQMGNMGYKTVEPKELEFEKEKPKLLKEIIDAHLEELQYSEDELSELLGLKIQEFAKSYAPARPRLRVSKGKAR” the “soluble on expression in E. coli” value was “not soluble”. With “MVQDWEFIVSFLKINWILMNHVTAPYSYVDVSYDNIPFVGKIPIIGKDGTSSRLGVSPFYPADGNPSNPFPPIYKARPLPLHVPEPQDVVAVPLDEEALHGEPLFPPELILPSELAAEEAAKKKALETKKPENPFADVVETNEQLDTVHWPTAVSTSEIEGEDSQGKNMVQEDEPQRSVIIDEAREKPMQPFEAAKISIGANDRPKNPFRSRRILMERF” the “soluble on expression in E. coli” value was “not soluble”. With “MINMKFFNRVEEIKEILSILEEEPNLIYFIYGPINSGKTALINEIINNRLDKNKYVVFYIDLREIFISKYDEFEAKLRATKTFGFRLIIEVLFEEYEDDKKPIEIIRSLIKDAPSLCGIPTPKNTLEEILKKKTTKNVFKYITNILMDIKREGKQPIIIIDELQKIGDMKINGFLIYELFNYFVSLTKHKHLCHVFCLSSDSLFIERVYNEAMLKERVDYILVDDFDKETALKFIDFLSEEILNKKLSDEDKELIYSYVGGKPILIINVIGKLKHKNLKDVLNILLMDEISKLKDFLSNLDYIKPKVNIEEEIIEIRKEDIINALKLFKGKYEIEVDKIPKAVYVYLVKKNILFLYPQRGTLKPQSFLVWNAIKRVL” the “soluble on expression in E. coli” value was “not soluble”. In the case of “MSLKQISIRDVAALAGVSVGSASRVINGAANVTPDVRERVDRAIAALRYRPNHAAQSLRSRTSKTIGCMFSDVANPLYARAFRALEEHFRREGYMLLLANGLNDAEREIDIIQTFQLRGMDGVILAPGNERHPGVLDAVRRLSMPAVIYDRDLAVDADAVLFDHVAGVKAAIHHLVELGHTRIALALWQVKSRPVRRRIEGYKAAFKAAGLPVPDLILQEPTPTSSAFDDVTRLLQLPDPPTAFLAQGTHTLTSTLRAIAKQGLRVPEDVSVIGIGDTDFAQTYDPPLTVLRTPTDEVAAHAVEMLLSRLAAKGDASLSPRKALIQFDLILRESCAPVAREGHHHHHH”, the “soluble on expression in E. coli” value is reported as “not soluble”. In the case of “MARKLFTPITIKDMTLKNRIVMSPMCMYSSHEKDGKLTPFHMAHYISRAIGQVGLIIVEASAVNPQGRITDQDLGIWSDEHIEGFAKLTEQVKEQGSKIGIQLAHAGRKAELEGDIFAPSAIAFDEQSATPVEMSAEKVKETVQEFKQAAARAKEAGFDVIEIHAAHGYLIHEFLSPLSNHRTDEYGGSPENRYRFLREIIDEVKQVWDGPLFVRVSASDYTDKGLDIADHIGFAKWMKEQGVDLIDCSSGALVHADINVFPGYQVSFAEKIREQADMATGAVGMITDGSMAEEILQNGRADLIFIGRELLRDPFFARTAAKQLNTEIPAPVQYERGW”, the “soluble on expression in E. coli” value is reported as “soluble”. For “MMKLKFYLVYLWYKVLLKLGIKTDEIYYIGGSEALPPPLTKEEEEVLLNKLPKGDQAARSLLIERNLRLVVYIARKFENTGINIEDLISIGTIGLIKAVNTFNPEKKIKLATYASRCIENEILMHLRRNNKNRSEVSFDEPLNIDWDGNELLLSDVLGTDDDIITKDLEATVDRHLLMKALHQLNDREKQIMELRFGLAGGEEKTQKDVADMLGISQSYISRLEKRIIKRLRKEFNKMV”, the “soluble on expression in E. coli” value was “not soluble”. In the case of “GPGSMEFVAEAHGYLITGLALDSQGDLFAICSCSGELLRLNKEENTLVSIMATEASPYNIAIEPNSGSVFITDRSENAILKLEDAATVRAEQELREGKDQESQAAYTTVQYLNAFEGRSFLGPTAIAFSPSGELFFTDAGAEGDSSFSDPVGAVYRTTMNHEHLVPICTRGLIRPSAIAVAPDNSVYVCEQGTNRVLRFVQRSTFYVGNVFAQLQGGMGPRAIAVSPRDGSVFVAQYDISAVEAPTEEGESEKGNEDAGEGEGGDDGKVQNQSALESAGEGGIITVLGRDGDVRGIVRTMRPCITAIALDASGETLYVMEGDEANGSSKLYKLQVLPLDDQQCGGQAE”, the “soluble on expression in E. coli” value is reported as “not soluble”. With “AIAVIVSRCGTGGSVTEHANEVVMKLEALQRPGGLPLSILLVLAGLTKRGASDLRHPIAEDRQSLSCATVQPSLQDV” the “soluble on expression in E. coli” value was “soluble”. With “SHMAGLEVLFASAAPAITCRQDALVCFLHWEVVTHGYCGLGVGDQPGPNDKKSELLPAGWNNNKDLYVLRYEYKDGSRKLLVKAITVESSMILNVLEYGSQQVADLTLNLDDYIDAEHLGDFHRTYKNSEELRSRIVSGIITPIHEQWEKANV” the “soluble on expression in E. coli” value was “soluble”. In the case of “MKIMIIGATGMAGQALVTTALNRGHQVVAVARSAEKLATLPSNPNLTSIVRDAFNLTTTDLSAVDAVVDAFATAPDHAYLHVDLATHLISQLRETTTPRVAFILGAGSLTTGDDAHLFVHDLEQDPHAASFISVPQNQLKELTFLRDVDNVNWFGVSPAADFHPGEAQPALLGTDTLLFNDQQQSGTSAGTMAVAILDELENPLEHHHHHH”, the “soluble on expression in E. coli” value is reported as “not soluble”. In the case of “MTIWEISEKADYIAQRHRRLQDQWHIYCNSLVQGITLSKARLHHAMSCAPDKELCFVLFEHFRIYVTLADGFNSHTIEYYVETKDGEDKQRIAQAQLSIDGMIDGKVNIRDREQVLEHYLEKIAGVYDSLYTAIENNVPVNLSQLVKGQSPAA”, the “soluble on expression in E. coli” value is reported as “soluble”. In the case of “MKCQKDDPICHLRDDMQDGDNSVNRTVSHLFQLTLTILTRVYSNLNEISLVCQSWNLHAESSGIYKIPQKVQISLLKTFETNREAKSKNLLDPVLLDQFANQSIRAHSLLLLPYSTTRYKTWTGKTFSKHNLIDEFVGKSFECATESFCPDPCCSGIPSVVRSSSKYAPLCKMNSCQKASTCIVKHFENDDLSKLRLNQFNVNCGCEEPGTIYRPDIGRCVHHNPCTKQSLCRDFGQECVNTASGYKCVCQLGYFRNGSNSCAPLKFSAPVYHGFALSEEMDEL”, the “soluble on expression in E. coli” value is reported as “not soluble”. With “MGSDKIHHHHHHMIRILMGSYGSGKTEISINLALKLKSSGKDVSLVDLDVVTPYFRLRDLKKKLEELGIHVVTVGDNLRYSDLPIIPKNTDWLSSEEAVIDTGGEDGAKAVGALRHLMNGKNTHTYFVVNAFRPFCERPEDIIENLKKISTLSKMKIDFLINNSNLGDMTTAEVVLEGERIVSEVSRKTGIKVLFTVVPEELIDPPETDYPLFSIRRFMKRKLGIGGMRT” the “soluble on expression in E. coli” value was “not soluble”. In the case of “MGSSHHHHHHGGTGENLYFQGGSGHPASLAAHAFGDASTRSPTHTLPSRCHLFLSLSLSTAAVRRSRASPPLAPTRRTHECLSASHTRTCRQSASFSPLEHPFSFSVAILSSTMPREIKTLKEFLAICSRKDARCVKVKHNPSATKFKVRCSRYLYTLVVNDKKKADKIERSIHPSVKKIAVTARSHAKTNAGSKQ”, the “soluble on expression in E. coli” value is reported as “not soluble”. In the case of “MLIRQAGPADNAQLLDFQQRHAMRGSMPLRFDRSPDYFALHHCHAADHRTWIAQSPEGELRGSASLVVRDGYLQGSAEPIAYLGDLRLMPDRRLSRSWMAEVQTRLADLSLQTGAQHAYCCIIRDNPLAIQSLLGRRRANPLKLAHWRGYSNVSVYGQRGLSSAPRTHAGVRVVRAEPRHLDALRAFLDSESSRQSFGCVFSETEFERRISHWPDFAIGSFLLAVDERENLLGCVAPWDAGKIKRIVVEQMPVAQQLLRMGYNAVAPLAGRPGIASPGNPLRDIYLTHLQVRQRDPEVFAALLDVAWAQVRKDYSLMQLCLYDQDPLWLAMRRYRSVSLPMDLYTAPCGSNTPVFTETCAAGVPGFEIYLV”, the “soluble on expression in E. coli” value is reported as “not soluble”. In the case of “MFVRFASAQSVPPGDIQTQPGTKIVFNAPYDDKHTYHIKVINSSARRIGYGIKTTNIKRLGVDPPCGVLDPKEAVLLAVSCDAFAFGQEDTNNDRITVEWTNTPDGAAKQFRREWFQGDGMVRRKNLPIEYNP”, the “soluble on expression in E. coli” value is reported as “soluble”. For “MIKDPRPLNDKAFIQQCIRQLCEFLTENGYAHNVSMKSLQAPSVKDFLKIFTFLYGFLCPSYELPDTKFEEEVPRIFKDLGYPFALSKSSMYTVGAPHTWPHIVAALVWLIDCIKIHTAMKESSPLFDDGQPWGEETEDGIMHNKLFLDYTIKCYESFMSGADSFDEMNAELQSKLKDLFNVDAFKLESLEAKNRALNEQIARLEQERSTANKANAERLKRLQKSADLYKDRLGLEIRKIYGEKLQFIFTNIDPKNPESPFMFSLHLNEARDYEVSDSAPHLEGLAEFQENVRKTNNFSAFLANVRKAFTATVYQ”, the “soluble on expression in E. coli” value was “soluble”. With “APLFIKNVNGIKVAILSYAYGFNGLESNLTEKEIANHLSNLDEKRMKVEIERAEKEADVTVIMPQMGVEYRLEPTDEQVKLYHKMIDWGADIIFGGHPHVVEPSEVVKKDGQQKLIIYSMGNFISNQRIETVDGVDNAAWTERSVLMDVTLEKKNCQTTIKTAQAHPTWVNRTPKGTISPEGYPLYTYQTYILEDFIKGRKYRNKLDEETKERIDTAYKEMNAHVNL” the “soluble on expression in E. coli” value was “not soluble”. With “MTNTGETKVIESHGTIKKIDSLSTMPYCGVETDENAVVEEKITLESGKSWSPKHYELLHERIERLIDEKQQFFSLEFFPPRFVNGVPNFLERVERLSEGGSVFVDMTWHMGSDPANVDKVTSSSSIAASMLDYCGVDTMLHMTCVQYNKADTLKHLEQAKAMGLRSILALRGDLPPGTELEDTHQFRALDMIRWIREEYGNYFSIGCAGYPLGHPQAPSYKADLMYLKAKCDAGANFVITQLFFEAETFEKFVRDCREIGITQPIIPGIMPIMGYESIKRIAKLSQLEIPQHILDDLEPIKHDDDAVQKYGTERCIEMCRRLLDNGTAPSIHLYTMNREGSIREILKSLGLWKLEGDRVFPWKNRSQHPIRCLESVRPIYWSFRPRSYITRTRDWDQFPNGRWGNSSSPAFGDVSSYYLSNLTTVRNADDRLAMFGANIESFEDVKRVFINYITQAPNADGVKVTVLPWTEAETGVQPETSLISEQLVWCNENGILTVNSQPSVNGAPSTDPLVGWGKPGGYCYQKAYLECFMTAELSDKLIQIIEREFPVRVNYHAINKDSTFDKTNSEETTPIAVTWGVFPGSEIAQPTVVDPLSFRAWRDEAYQMWMAQWGDFYPKESKSYGVIKAVHDEFRLVTLVDNDFQKPSVLFDVLQKALDELKK” the “soluble on expression in E. coli” value was “not soluble”. For “DALHDQASALFKPIPEQVTELRGQPISEQQRELGKKLFFDPRLSRSHVLSCNTCHNVGTGGADNVPTSVGHGWQKGPRNSPTVFNAVFNAAQFWDGRAKDLGEQAKGPIQNSVEMHSTPQLVEQTLGSIPEYVDAFRKAFPKAGKPVSFDNMALAIEAYEATLVTPDSPFDLYLKGDDKALDAQQKKGLKAFMDSGCSACHNGINLGGQAYFPFGLVKKPDASVLPSGDKGRFAVTKTQSDEYVFRAAPLRNVALTAPYFHSGQVWELKDAVAIMGNAQLGKQLAPDDVENIVAFLHSLSGKQPRVEYPLLPASTETTPRPAE”, the “soluble on expression in E. coli” value was “soluble”.
